Measured values reported in patent US20160145321A1 (CRUCELL HOLLAND B V, published 2016).

T1: G protein of RSV A/Long (virus, ATCC Cat. No. VR-26) (Respiratory syncytial virus A/Long, UniProt P20895 1-298)
T1 sequence (looked up): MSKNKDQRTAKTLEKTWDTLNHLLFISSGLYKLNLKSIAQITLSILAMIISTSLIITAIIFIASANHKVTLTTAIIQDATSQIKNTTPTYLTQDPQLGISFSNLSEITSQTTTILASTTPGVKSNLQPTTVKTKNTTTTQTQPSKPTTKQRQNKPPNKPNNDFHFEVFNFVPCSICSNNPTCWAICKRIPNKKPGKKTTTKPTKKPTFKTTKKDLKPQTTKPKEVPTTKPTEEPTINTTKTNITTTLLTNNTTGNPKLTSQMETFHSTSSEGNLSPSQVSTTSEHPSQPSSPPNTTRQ

T2: G protein of RSV A/A2 (virus, ATCC Cat. No. VR-1540) (Respiratory syncytial virus A/A2, UniProt P03423 1-298)
T2 sequence: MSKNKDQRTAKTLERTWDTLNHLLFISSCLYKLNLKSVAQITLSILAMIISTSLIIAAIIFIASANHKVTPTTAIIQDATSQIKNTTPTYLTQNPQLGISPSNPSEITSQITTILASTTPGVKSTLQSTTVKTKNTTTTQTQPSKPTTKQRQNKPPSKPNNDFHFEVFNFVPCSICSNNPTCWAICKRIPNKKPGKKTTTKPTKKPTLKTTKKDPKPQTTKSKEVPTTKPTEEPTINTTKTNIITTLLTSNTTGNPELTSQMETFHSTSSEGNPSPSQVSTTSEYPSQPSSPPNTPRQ

T3: G protein of RSV B/18537 (virus, ATCC Cat. No. VR-1580) (Respiratory syncytial virus B/18537, UniProt P20896 1-292)
T3 sequence: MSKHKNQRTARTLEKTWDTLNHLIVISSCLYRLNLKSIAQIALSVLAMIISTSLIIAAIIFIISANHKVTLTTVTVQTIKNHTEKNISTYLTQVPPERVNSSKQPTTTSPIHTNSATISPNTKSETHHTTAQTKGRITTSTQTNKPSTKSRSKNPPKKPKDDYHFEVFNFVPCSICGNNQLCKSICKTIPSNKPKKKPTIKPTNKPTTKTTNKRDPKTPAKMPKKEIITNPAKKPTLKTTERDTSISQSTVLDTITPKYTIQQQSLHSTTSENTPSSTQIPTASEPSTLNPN

T4: Recombinant RSV attachment protein (G protein) corresponding to RSV B/B1 (Respiratory syncytial virus B/B1, UniProt O36633 65-299)
T4 sequence: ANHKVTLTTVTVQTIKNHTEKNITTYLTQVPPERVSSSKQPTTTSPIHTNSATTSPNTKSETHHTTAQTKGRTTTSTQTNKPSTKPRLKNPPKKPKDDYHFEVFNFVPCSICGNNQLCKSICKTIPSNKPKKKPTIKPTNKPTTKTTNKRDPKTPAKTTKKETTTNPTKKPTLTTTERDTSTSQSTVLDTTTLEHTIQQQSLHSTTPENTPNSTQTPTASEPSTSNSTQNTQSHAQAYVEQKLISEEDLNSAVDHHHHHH

T5: Recombinant RSV attachment protein (G protein) corresponding to RSV A/Long (Respiratory syncytial virus A/Long, UniProt P20895 65-298)
T5 construct: also called RSV Ga; Ga
T5 sequence: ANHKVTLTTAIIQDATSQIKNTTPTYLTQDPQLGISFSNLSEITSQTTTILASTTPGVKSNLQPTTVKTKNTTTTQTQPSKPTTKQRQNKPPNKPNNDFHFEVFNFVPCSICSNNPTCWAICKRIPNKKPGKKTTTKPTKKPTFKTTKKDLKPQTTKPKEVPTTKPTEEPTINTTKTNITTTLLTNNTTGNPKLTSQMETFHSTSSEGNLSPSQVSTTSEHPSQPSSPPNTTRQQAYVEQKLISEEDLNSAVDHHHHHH

B1: CB010.7 (antibody, V domains shown)
VH: QVQLVESGGGVVQPGRSLRLSCAASGFTFNTHGMHWVRQAPGKGLEWVAVMSYDGTKKYHADSVKGRFTISRDNSKNTLYLQMNSLRVEDTAIYYCAKVGELRSFDWLLADGTAYYYYGMDVWGQGTTVTVSS
VL: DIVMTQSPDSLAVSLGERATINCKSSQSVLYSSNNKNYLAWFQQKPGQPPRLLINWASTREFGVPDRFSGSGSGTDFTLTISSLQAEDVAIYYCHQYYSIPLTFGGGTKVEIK
B2: CB048.3 (antibody, V domains shown)
VH: QVQLVESGGGVVQPGRSLRLSCAASGFTFSNHGMHWVRQAPGKGLEWVAVISYDGNKKYYADSVKGRFTVSRDNSKNTLSLQMDSLRAEDTAIYYCAKTTFYFDDSNYYEYLDYWGQGTLVTVSS
VL: DIQLTQSPSFLSASVGDRVTITCRASQGIRSYLAWYQQKPGKAPKLLIYAASTLQSGVPSRFSGGGSGTEFTLTISSLQPEDSATYYCQQLNTSPPYTFGQGTKLEIK
B3: CB028.2 (antibody, V domains shown)
VH: QVQLVQSGAEVKKPGASVKVSCKASGYTFTTYGITWVRQAPGQGLEWMGWISGDSDNTNYAQNLQGRVTLTTDISTRTAYMELRSLKPDDTAMYYCARALAKWYCSSSSCFCGGGSCYSDYWGQGTLVTVSS
VL: DIQMTQSPSSLSASVGDRVTITCRASQGMSNYLNWYQQKPGKAPELLIYAASTLQSGVPSRFSGSGSGTDFTLTINSLQPEDFATYFCQQSFSTPLTFGGGTKVEIK
B4: CB003.1 (antibody, V domains shown)
VH: QVQLVQSGPELRKPGASVTVSCKASGYTFTTYYIHWVRQAPGGGLDWMGMINTGSGVTSYAQKFQGRVAMTRDTSTSTVFMELSSLRFEDTALYYCARMYSGSWYPFDYWGQGALVTVSS
VL: EIVLTQSPGTLSLSPGERATLSCRASQNINGNYLAWYQQKPGLAPRLLIYEASSRATGIPDRFSGSGSGTDFTLTISSLEPEDFGVYYCQQYGTSPFFTFGPGTKVDIK
B5: CB058.1 (antibody, V domains shown)
VH: EVQLVESGGGLVQPGGSLRLSCVASGFTFSSYAMSWVRQAPGKGLEWVSAIRGSVDNTYYADSVKGRFTISRDNSKNTLYLQMNSLRVEDTAVYYCAKDPALYCSGETCFSDLTDWGQGTLVTVSS
VL: DIQMTQSPSSLSASVGDRVTITCRASQGINNYLAWFQQKPGKAPKSLIYAASTLPSGVPSRFSGSGSGTDFTLTISSLQPEDSATYFCQHYIRYPHTFGQGTKLEIK
B6: CB002.1 (antibody, V domains shown)
VH: QVQLQESGPRLVKPSETLSLTCTVSGGSTSSYFWNWIRQPPGKGLEWIGYIYGSGSADYNPSLKSRVTISIDTSKTQFSLKLTSVTAADTAVYYCARSGFCTNDACYRRGSWFDPWGQGTLVTVSS
VL: DIQMTQSPSSLSASVGDRVTITCRASQSIDNYLNWYQQKPGKAPKLLIYAASSLQSGVPSRFSGSGSGTDFTLTVSSLHPEDFATYYCQQSYSTLTWTFGQGTKVEIK
notes: also called CB2.1

Tests used:
[1] = molecular target: T1, G protein of RSV A/Long (virus, ATCC …); experiment: cell-based or functional assay
[2] = molecular target: T2, G protein of RSV A/A2 (virus, ATCC Cat. …); experiment: cell-based or functional assay
[3] = molecular target: T3, G protein of RSV B/18537 (virus, ATCC …); experiment: cell-based or functional assay
[4] = molecular target: T4, Recombinant RSV attachment protein (G …); experiment: ELISA, coated recombinant protein (Example 6)
[5] = molecular target: T5, Recombinant RSV attachment protein (G …); experiment: ELISA, coated recombinant protein (Example 6)

Binder | Neutralization IC50 (plaque reduction assay, Vero cells) [1] | Neutralization IC50 (plaque reduction assay, Vero cells) [2] | Neutralization IC50 (plaque reduction assay, Vero cells) [3] | binding result [4] | binding result [5]
B1 | 0.012 µg/mL | 0.0165 µg/mL | 0.0141 µg/mL | binds | –
B2 | – | 0.0167 µg/mL | – | binds | binds
B3 | – | – | 0.0196 µg/mL | binds | binds
B4 | 0.016 µg/mL | 0.0315 µg/mL | 0.0246 µg/mL | – | –
B5 | – | 0.0144 µg/mL | – | binds | binds
B6 | – | 0.0355 µg/mL | – | binds | binds
